Measurements taken from the nanobody polyreactivity screen of Harvey et al. (2022).

Assay: yeast display, Sf9 membrane polyspecificity reagent, FACS + sequencing; frameworks hold sequencing errors
In short: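 Nanobodies came from a synthetic yeast display library in Saccharomyces cerevisiae BJ5465, induced with galactose for 36–48 hours and stained for 1 hour at 4 °C with 10% biotinylated, detergent-solubilized Sf9 membrane reagent. Cells were enriched on streptavidin microbeads and then FACS-sorted, with low and high (top ~1%) gates set on anti-HA fluorescence for expression and streptavidin fluorescence for reagent binding. Each polyreactivity label reflects the gate a clone came from. Genes were amplified by colony PCR, sequenced by MiSeq 2 × 250 and filtered by CDR length.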

Sequence	polyreactivity (PSR sort gate)
QVQLVESGGGLVQAGGSLRISCAASGFIFDPYAMGWYRQAPGKERELVASINTRGDRTSYADSVKGRFTISRDNAKNTVYLQMNSLKPEDTAVYYCNADAVDQVGPDDDYWGQGTQVTVSS	low polyreactivity
QVQLVESGGGLVQAGGSLRISCAASGFIFGTNAKGWYRQAPGKERELVAAINCRGGGTYYADSVKGRFTISRDNAKYTVYLEMNSLKPEDTAVYYCAASRFDYWGQGTQVTVSS	low polyreactivity
QVQLVESGGGLVQAGGSLRISCAASGFIFNIYAMGWYRQAPGKERELVASITSGGNTNYADSVKGRFTISRDNAKNTVYLQMNSLKPEDTAVYYCAAETSSSRGYDYWGQGTQVTVSS	low polyreactivity
QVQLVESGGGLVQAGGSLRISCAASGFIFPWYTMGWYRQAPGKERELVAVINQSGGSTYYADSVKGRFTISRDNAKNTVYLQMNSLKPEDTAVYYCAARLVKQYYYWGQGTQVTVSS	high polyreactivity
QVQLVESGGGLVQAGGSLRISCAASGFIFQSNAMGWYRQAPGKERELVAAISWSGDNTYYADSVKGRFTISRDNAKNTVYLQMNSLKPEDTAVYYCAAVPYPSYYDTGYDYWGQGTQVTVSS	low polyreactivity
QVQLVESGGGLVQAGGSLRISCAASGFIFTGTALGWYRQAPGKERELVAAITWSGGRTYYADSVKGRFTISRDNAKNTVYLQMNSLKPEDTAVYYCNVYFSIAQRYVGGLIAHDNYWGQGTQVTVSS	high polyreactivity
QVQLVESGGGLVQAGGSLRISCAASGFIISFYAMGWYRQAPRKERELVAAIKLSGGSTYYADSVKGRFTISRDNAKNTVYLQMNSLKPEETAVYYCNDVQYFSIPKPVWLFVLRYYYWGHGTQVTVSS	low polyreactivity
QVQLVESGGGLVQAGGSLRISCAASGFTFSYNAMGWYRQAPGKERELVAGINVSSGGDTYADSVKGRFTISRDNAKNTVYLQMNSLKPEDTAVYYCAKDHYGDDTYGTPYDYDYWGQGTQVTVSS	low polyreactivity
QVQLVESGGGLVQAGGSLRISCAASGGIIAINSMRCYRQAPGKERELVAAISWGDGITYYSDSVKRRFTISRDNAKYTVYLHMISLKPEDTAVYYCAADEDEYRGGDESWGQGTQVTVSA	low polyreactivity
QVQLVESGGGLVQAGGSLRISCAASGGTFQAYAMGWYRPAPGKERELVAAITRRGTRTYYADSVKGRFTISRDNAKNTVYLQMNSLKPEDTAVYYCAAVRYPNWYDYWGQGTQVTVSS	high polyreactivity
QVQLVESGGGLVQAGGSLRISCAASGIIFYRNAMGWYRQAPGKERELVAVITASGGNTYYADSVKGRFTISRDNAKNTVYLQMNSLKPEDTAVYYCNRELTSPRRWHVSRAYDYWGQGTQVTVSS	low polyreactivity
QVQLVESGGGLVQAGGSLRISCAASGITFYGYAMGRYRQAPGKERELVATISKSGGITSYADSVKGRFTISRDNAKNTVYLQMNSLKPEDTAVYYCNRGKSYGGYDYWGQGTQVTVSS	low polyreactivity
QVQLVESGGGLVQAGGSLRISCAASGLIFGINAMGWYIQAPGKERELVATITSGGGTNYADSVKGRFTISRDNAKNTVYLQMNSLKPEYTAVYFCALDSASDTIYDYWGQGTQGTVSS	low polyreactivity
QVQLVESGGGLVQAGGSLRISCAASGLTFDYNAMGWYTQAPGKERELVAAITSGGSTKYADSVKGRFTISRDNSKNTVYLQMNSLKPEDTAVYYCARDRPGDYAGYDYWGQGTQVTVSS	low polyreactivity
QVQLVESGGGLVQAGGSLRISCAASGLTFGRYAMGWYRQAPGKEMELVAAITGSGGRTYYADSVKGRFTISRDNAKNNVYLQINSLKQEDTAVYYCATEASPRGYAEYDYWGQGTQVTVSS	high polyreactivity
QVQLVESGGGLVQAGGSLRISCAASGLTFWAYAMGWYRQAPGKEREFLAAISWSGDSTYYADSVKGRFTISRDNAKNTVYLQMNSLKPEDTAVYYCAAEWYYVYIAPYDYWGLGTQVTVSS	low polyreactivity
QVQLVESGGGLVQAGGSLRISCAASGRIFEVYDMGWYRQAPGKERELVAAISESDDNTYYADSVKGRFTISRDNAKNTVYLQMNSLKPEDTEVYYCNADVPGDTGWWGFDYWGQGTQVTVSS	low polyreactivity
QVQLVESGGGLVQAGGSLRISCAASGRIFSWYVMGWYRQAPGKERELVAAISSGGSTYYADSVKGRFTISRDNAKNTVSFQMNSLKPEDTAVYYCAVRPYVYRIGASRLDYWGQGTQVTVSS	high polyreactivity
QVQLVESGGGLVQAGGSLRISCAASGRIFYVYAMGWYRQAPGKERELVAAISTGSPTYYADSVNGRFTISRDNAKNTVYLQMNSLKPEDTAVYFCATGSIHGDFWSFRHQYYYWGQGTQVTVSS	low polyreactivity
QVQLVESGGGLVQAGGSLRISCAASGRTFARYVMGWYRQAPGKERELVAAISGGGGSTYYADSVKGRLTISRDTAKNTVFLQMNSLKPAETAVYYCAAVPEGPNTGDDANGLDYWGQGTQVTVSS	low polyreactivity
QVQLVESGGGLVQAGGSLRISCAASGRTFGPYAMGWYRQAPGKERELGAAITSSGGSTYYADSVKGRFTISRDNAKNTVYLQMNSLKPEDTAVFYCNKLYWRQSLDYDYWGQGTQVTVSS	low polyreactivity
QVQLVESGGGLVQAGGSLRISCAASGRTFGRYTMGWYRQAPGKVRELVASISNTARTNYADSVKGRFTISRDNAKNTVYLQMNSLKPEDTAVYYCASGFVRYRGTRDYWGQGTQVTVSS	low polyreactivity

Sequence	polyreactivity (PSR sort gate)
QVQLVESGGGLVQAGGSLRISCAASGRTFRHYAMGWYIQAPGKEREFVAAISRSGGSTRYADSVKGRFTISRDNAKNSVYLQMNSLKPEDTAVYYCAATSRSYNDYDYWGQGTQVTVSS	high polyreactivity
QVQLVESGGGLVQAGGSLRISCAASGRTFRKYGMGWYRQAPGKERELLAAITRSGDSTYYADSVKARFTISRDNAMNTVYLQMNSLKPEDTAVYYCNTDGPRTYDTWEYDYWGQGTQVTVSS	high polyreactivity
QVQLVESGGGLVQAGGSLRISCAASGRTFSRYAMGGYRQAPGTERELVAAISRRGSSTYYADSVKGRFTISRDNAKNTVYLQINSLKPEDTAVYYCNTVTFPYVPALYDYWGQGTQVTVSS	high polyreactivity
QVQLVESGGGLVQAGGSLRISCAASGRTFWKYVMGWYRQAPGKEMELVAVISRPAGSTYYADSVKGRFTISRDNAKNTVYLQRNSLKPEDTAVYYCDKRPKNKPVLGDYDHWGQGTQVTVSS	low polyreactivity
QVQLVESGGGLVQAGGSLRISCAASGRTFYWNAMGWYRQAPGKERELVASINGGGSTYYADSVKGRFTISRDNAKNTVYLQMNSLKPEDTAVYYCNAESYEFHRAWGDYDYWGQGTQVTVSS	low polyreactivity
QVQLVESGGGLVQAGGSLRISCAASGSIFDYYVMGWYRQATGKERELVAAISWSGASTYYADSVKGRCTISRDNAKNTVYLQMNSLKREDTAVYYCAAYYGVNNLIDYDYWGQGTQVTVSS	low polyreactivity
QVQLVESGGGLVQAGGSLRISCAASGSIFGDNAMGWYRHAPGKERELVAAITFSGGSTHYADSVKGRFTISRDTAKNTVYLQMNSLKPEDTAVYYCAKRWRYSKHVNYYYWGQGTQVTVSS	high polyreactivity
QVQLVESGGGLVQAGGSLRISCAASGSIFGWYAMGWYRPAPGKEREFVATISRRGGRTYYADSVKGRFTISRDNAKNTVYLQMNSLKQEDTAVYYCAANSVYKEDYWGQVTQVTVSS	high polyreactivity
QVQLVESGGGLVQAGGSLRISCAASGSIFHTYAMGWYRQAPGKERELVAAITVSGGDTYYADSVKGRFTISRDNAKNTVYLQMHSLKPEDTAVYYCAVDTTTSYTVEYDYWGQGTQVTVSS	low polyreactivity
QVQLVESGGGLVQAGGSLRISCAASGSIFPTYAMGWYRQAPGKERELVAAISGSGGSTYYADSVKGRFTISRDNAKNTVYFQINSLKPEDTAVYYCAVRRRRYHTYYRGYDNWGQGTQVTVSA	low polyreactivity
QVQLVESGGGLVQAGGSLRISCAASGSIFRIYAMGWYRQAPGKERELVAAISWTGGSTYYADSVKGRFSISRDNAKNTVYLQMNSMKPDDTAVYYCASRPRYKFSAYEYWGQGTQVTVSS	high polyreactivity
QVQLVESGGGLVQAGGSLRISCAASGSIFRWNAMGWYRQAPGKERELVAAINWSGGSTYYADSVKGRFTISRDNAKNTVYLQMNSLKPEDTAVYYCAVDYWSGITWVEYWGQGTQVTVSS	high polyreactivity
QVQLVESGGGLVQAGGSLRISCAASGSIFSRNAMGWYRQAPGKERELVAAITSGGSTYYADSVKGRFTISRDNAKNTVYLQMNSLKPEDTAVYYCAAVDYYGYVPEFGYWGQGTQVTVSS	low polyreactivity
QVQLVESGGGLVQAGGSLRISCAASGSIFYVYAMGLYRQAPGKERELVAAISRRGARTYYADSVKGRFTISRDNAKNTVYLQMNSLKPEDSAVYYCNADQYYTVGYSAEYEYWGQGTQVTVSS	low polyreactivity
QVQLVESGGGLVQAGGSLRISCAASGSTFFKNAMGWYRQAPGKERELVAAITWSGDRTYADSVKGRFTISRDNAKNTVYLQMNSLKPEDTAVYYCNVDITGYDDDYWGQGPQVTVSS	low polyreactivity
QVQLVESGGGLVQAGGSLRISCAASGSTFPYYAMGWYRQAPGKERELVAAISQNGGSTYYADSVKGRFTISRDNAKNTVYLQMNSLKPEDTAGYYCNRTARKLRTVHSSVVGLDYWGQGTQVTVSS	low polyreactivity
QVQLVESGGGLVQAGGSLRISCAASGSTFRYYAMGWYKQAPGKERELVAAITTSGGRTYYADSVKGRFTISRDNAKNTVYLQMNSLKPEDTAVYYCAIRYSTPYLTDNFLSGPGYYYWGQGSQVTVSS	high polyreactivity
QVQLVESGGGLVQAGGSLRISCAASGSTFWNAMGWYRQAPGKERELVAAIRLSGGSTYYADSVKGRFTISRDNAKNTVYLQMNSLKPEDTAVYYCNSDVTFGYWEYDYWGQGTQVTVSS	low polyreactivity
QVQLVESGGGLVQAGGSLRISCAASGSTFYCYAMGWYRQAPGKERELVAAIRRNGDGTYYADSVKGRFTISRDNAKNTVYLQMNSLKPVDTAVYYCAARRFIPRFNYWGQGTQVTVSS	high polyreactivity
QVQLVESGGGLVQAGGSLRISCAASGSTFYKYDMGWYRQAPGKEREFVAVISRSGGNTYYADSVKGRFTISRDNAKNTVYLQMNSLKPEDTAVSYCAADNYPDEYDYWGQGTQVTVSS	low polyreactivity
QVQLVESGGGLVQAGGSLRISCAASGSTFYLYDMGWYRQAPGKERELVANITSGTSTTYADSVKVRFTISRDNAKNTVYLQMNSLKPEDTAVYYCNATYTSPEYDYWGQGTQVTVSS	low polyreactivity
